# Data reported in patent US20170107294A1 (NORDLANDSSYKEHUSET HF, published 2017).
# T1: human CD14 (human, UniProt P08571 20-345)
# T1 construct: whole, on cells; also called CD14 on human monocytes
# T1 sequence (looked up): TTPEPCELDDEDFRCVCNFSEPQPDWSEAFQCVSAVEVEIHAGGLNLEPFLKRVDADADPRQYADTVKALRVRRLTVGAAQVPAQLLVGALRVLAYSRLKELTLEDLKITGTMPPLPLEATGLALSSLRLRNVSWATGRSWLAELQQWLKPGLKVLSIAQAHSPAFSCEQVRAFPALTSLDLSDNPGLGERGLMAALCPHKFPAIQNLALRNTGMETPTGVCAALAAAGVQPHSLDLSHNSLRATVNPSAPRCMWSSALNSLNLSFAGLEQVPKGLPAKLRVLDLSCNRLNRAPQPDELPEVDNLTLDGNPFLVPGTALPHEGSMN
# T2: human FcgRIIb ectodomains fused to GST (human; Schistosoma japonicum, UniProt P31994 43-217)
# T2 construct: extracellular domain; also called hFcgRIIb; not shown: Schistosoma japonicum GST
# T2 sequence (looked up): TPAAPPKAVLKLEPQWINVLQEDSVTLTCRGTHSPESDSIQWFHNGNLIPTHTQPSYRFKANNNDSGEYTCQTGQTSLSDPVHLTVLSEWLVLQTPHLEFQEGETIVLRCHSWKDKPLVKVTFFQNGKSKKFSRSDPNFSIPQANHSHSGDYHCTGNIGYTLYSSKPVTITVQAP
# Assays:
# [1] = molecular target: T1, human CD14; experiment: flow cytometry, human whole blood, displacement of 18D11 mIgG1 from monocytes
# Excerpt: Fresh human or porcine whole blood was drawn into tubes containing the anticoagulants lepirudin (Refludan; Pharmion, Copenhagen, Denmark) or EDTA, respectively. […] Endotoxin-free Dulbecco phosphate buffered saline, PBS (Sigma-Aldrich), was used for diluting the Abs. […] Their binding was detected either by using a secondary PEconjugated anti-mouse IgG or through direct FITC fluorescence. Erythrocytes were lysed using FACS Lysing solution (BD Biosciences, Franklin Lakes, N.J.; human blood) or a solution of 0.16 M ammonium chloride, 10 mM sodium bicarbonate, 0.12 mM EDTA (Tritiplex III) and 0.04% (v/v) paraformaldehyde (porcine blood). In subsequent flow cytometry analyses, human monocyte and porcine granulocyte populations were selected based on the forward scatter-side scatter dot plot, and CD14 binding was recorded as mean or median fluorescence intensity, respectively.
# [2] = molecular target: T3, human C1q (hC1q), biotinylated (human, UniProt P02745 23-245; P02746 28-253; P02747 29-245, biotinylated); experiment: ELISA, coated Ab, biotinylated hC1q
# T3 construct: also called complement component C1q
# T3 sequence (P02745 23-245 limits assumed, chain 1 of 3): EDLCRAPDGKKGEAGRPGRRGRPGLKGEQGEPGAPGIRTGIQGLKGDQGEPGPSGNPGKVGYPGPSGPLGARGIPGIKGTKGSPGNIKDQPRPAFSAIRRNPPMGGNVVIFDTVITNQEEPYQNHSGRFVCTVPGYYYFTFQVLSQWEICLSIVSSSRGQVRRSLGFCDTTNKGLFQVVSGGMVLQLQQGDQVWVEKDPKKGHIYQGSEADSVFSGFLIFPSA
# T3 sequence (P02746 28-253 limits assumed, chain 2 of 3): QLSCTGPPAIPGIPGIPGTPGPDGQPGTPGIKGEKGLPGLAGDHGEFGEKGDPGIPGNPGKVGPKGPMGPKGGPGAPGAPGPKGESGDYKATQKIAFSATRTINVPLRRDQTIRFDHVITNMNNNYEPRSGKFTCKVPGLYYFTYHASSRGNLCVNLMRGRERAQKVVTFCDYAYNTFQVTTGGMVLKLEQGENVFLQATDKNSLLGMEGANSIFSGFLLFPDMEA
# T3 sequence (P02747 29-245 limits assumed, chain 3 of 3): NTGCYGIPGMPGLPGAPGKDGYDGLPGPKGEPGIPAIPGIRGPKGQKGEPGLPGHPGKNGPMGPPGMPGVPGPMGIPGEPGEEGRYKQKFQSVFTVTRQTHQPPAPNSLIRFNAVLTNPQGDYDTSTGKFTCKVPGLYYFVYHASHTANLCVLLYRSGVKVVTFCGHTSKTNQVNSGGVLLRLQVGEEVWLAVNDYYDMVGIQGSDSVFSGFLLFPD
# Method: (§1) Ninety-six-well plates (Nunc, Roskilde, Denmark) were coated with serial dilution of the Abs (6.0-0.09 mg/ml) and incubated overnight at 4° C. followed by washing three times with PBS/Tween (pH 7.4). The wells were blocked with 4% skimmed milk (Neogen Europe, Auchincruive, U.K.) for 1 h at room temperature and then washed in PBS/Tween (pH 6.0). Purified hFcRn-GST or pFcRn-GST (1 mg/ml) were diluted in 4% skimmed milk in PBS/Tween (pH 6.0) and preincubated with an HRP-conjugated anti-GST Ab (GE Healthcare U.K., Buckinghamshire, U.K.) diluted 1:5000 and added to the wells. The plates were incubated for 1 h at room temperature and washed with PBS/Tween (pH 6.0). Bound receptor was detected by adding 100 ml of 3,39,5,59-tetramethylbenzidine substrate (Calbiochem-Novabiochem, Nottingham, U.K.). The absorbance was measured at 450 nm using a Sunrise TECAN spectrophotometer. The assay described above was also performed using PBS/Tween (pH 7.4) in all steps. The same setup was used with GST-fused versions of hFcgRI, hFcgRIIa (allotype His131), hFcgRIIb, hFcgRIIIa (allotype Val158), and hFcgRIIIb (1 mg/ml each). In addition, a biotinylated human C1q (hC1 q; 4 mg/ml) preparation was incubated with the Abs and detected using ALP-conjugated streptavidin (GE Healthcare). Absorbance was measured at 405 nm.
# [3] = molecular target: T4, human FcgRI ectodomains fused to GST (human; Schistosoma japonicum, UniProt P12314 16-292); experiment: ELISA, coated Ab, GST-fused receptor
# T4 construct: extracellular domain; also called hFcgRI; not shown: Schistosoma japonicum GST
# Method: as §1
# [4] = molecular target: T2, human FcgRIIb ectodomains fused to GST; experiment: ELISA, coated Ab, GST-fused receptor
# Method: as §1
# [5] = molecular target: T5, human FcgRIIIa (allotype Val158) ectodomains fused to GST (human; Schistosoma japonicum, UniProt P08637 17-208); experiment: ELISA, coated Ab, GST-fused receptor
# T5 construct: extracellular domain; also called hFcgRIIIa; not shown: Schistosoma japonicum GST
# Method: as §1
# [6] = molecular target: T6, human FcgRIIIb ectodomains fused to GST (human; Schistosoma japonicum, UniProt O75015 17-200); experiment: ELISA, coated Ab, GST-fused receptor
# T6 construct: extracellular domain; also called hFcgRIIIb; not shown: Schistosoma japonicum GST
# Method: as §1
Binder,binding result [1],binding result [2],binding result [3],binding result [4],binding result [5],binding result [6]
"18D11 IgG1 F(ab')2 (Diatec) (other, F(ab')2 fragment of the mouse IgG1 clone 18D11, bought; also called 18D11 F(ab)92; F(ab9)2 18D11) VH: EVQLVESGGGLMQPKGSLKLSCAASGFTFKTYALNWVRQAPGTGLEWVARIRSKSNNYTTYYADSVKDRFTISRDDSQNMLYLQMNNLKTEDTAMYYCVRPQSGTSFAYWGQGTLVTVSAA VL: NIVLTQSPASLAVSLGQRATISCRASESVDSYGNSFMHWYQQKPGQPPKLLIYLASNLESGVPARFSGSGSRTDFTLTIDPVEADDVATYYCQQNNGDPYTFGGGTKLEIIR",binds,–,–,–,–,–
"recombinant Mil2 (rMil2), recombinant anti-porcine CD14 IgG2/4 Ab (antibody, Mouse/human chimera with human IgG2/4 hybrid heavy constant region and human kappa) heavy: QVRLQQPGAELVRPGASVKLSCKASGYTFTTYWMNWVKQRPEDGLEWIGRIDPYDSETHYNQNFKDKAILTVDKSSSTAYMQLSSLTYEDSAVYYCTRKEGRQWGAYFDYWGQGTTLTVSSASTKGPSVFPLAPCSRSTSESTAALGCLVKDYFPEPVTVSWNSGALTSGVHTFPAVLQSSGLYSLSSVVTVPSSNFGTQTYTCNVDHKPSNTKVDKTVERKCCVECPPCPAPPVAGPSVFLFPPKPKDTLMISRTPEVTCVVVDVSQEDPEVQFNWYVDGVEVHNAKTKPREEQFNSTYRVVSVLTVLHQDWLNGKEYKCKVSNKGLPSSIEKTISKAKGQPREPQVYTLPPSQEEMTKNQVSLTCLVKGFYPSDIAVEWESNGQPENNYKTTPPVLDSDGSFFLYSRLTVDKSRWQEGNVFSCSVMHEALHNHYTQKSLSLSLGK light: DIVMTQSQKFMSTSVGDRVSVTCKASQYVGTNVAWYQQKPGQSPKALIQSASYRCSGVPDRFTGSGSGTDFTLTISNVQSEDLADYFCQQYNTYVTFGGGTKLELKRTVAAPSVFIFPPSDEQLKSGTASVVCLLNNFYPREAKVQWKVDNALQSGNSQESVTEQDSKDSTYSLSSTLTLSKADYEKHKVYACEVTHQGLSSPVTKSFNRGEC",–,no binding,no binding,no binding,no binding,no binding
"recombinant 18D11 (r18D11), recombinant anti-human CD14 IgG2/4 Ab (antibody, Mouse/human chimera: murine variable regions, human IgG2/4 hybrid heavy constant region (CH1 and hinge from IgG2, CH2 and CH3 from IgG4), human kappa; Made in HEK293-EBNA cells; also called recombinant anti-human CD14 Ab) heavy: EVQLVESGGGLMQPKGSLKLSCAASGFTFKTYALNWVRQAPGTGLEWVARIRSKSNNYTTYYADSVKDRFTISRDDSQNMLYLQMNNLKTEDTAMYYCVRPQSGTSFAYWGQGTLVTVSAASTKGPSVFPLAPCSRSTSESTAALGCLVKDYFPEPVTVSWNSGALTSGVHTFPAVLQSSGLYSLSSVVTVPSSNFGTQTYTCNVDHKPSNTKVDKTVERKCCVECPPCPAPPVAGPSVFLFPPKPKDTLMISRTPEVTCVVVDVSQEDPEVQFNWYVDGVEVHNAKTKPREEQFNSTYRVVSVLTVLHQDWLNGKEYKCKVSNKGLPSSIEKTISKAKGQPREPQVYTLPPSQEEMTKNQVSLTCLVKGFYPSDIAVEWESNGQPENNYKTTPPVLDSDGSFFLYSRLTVDKSRWQEGNVFSCSVMHEALHNHYTQKSLSLSLGK light: NIVLTQSPASLAVSLGQRATISCRASESVDSYGNSFMHWYQQKPGQPPKLLIYLASNLESGVPARFSGSGSRTDFTLTIDPVEADDVATYYCQQNNGDPYTFGGGTKLEIIRTVAAPSVFIFPPSDEQLKSGTASVVCLLNNFYPREAKVQWKVDNALQSGNSQESVTEQDSKDSTYSLSSTLTLSKADYEKHKVYACEVTHQGLSSPVTKSFNRGEC",–,no binding,no binding,no binding,no binding,no binding
